The values that follow come from paper PMC8748815, “The N-terminal tail of the hydrophobin SC16 is not required for rodlet formation” (Scientific Reports, 2022).

This data set concerns the molecule itself. Briefly: thioflavin T fluorescence; self-assembly during agitation (air:water interface), 50 μg/mL protein, 20 μM ThT, multicomponent buffer pH 8.5 with 1 M NaCl (SC16ΔN also at pH 5.5-8.5 with 10 mM-1 M NaCl), 6 replicates.

B1: SC16 with the N-terminal signal sequence removed (18Thr-114Leu of the hyd1 gene of S. commune) (natural protein, Schizophyllum commune, UniProt D8QCG9 18-114, looked up)
chain: TAVPRDVNGGTPPKSCSSGPVYCCNKTEDHLDKGTTALLGLLNIKIGDLKDLVGLNCSPLSVIGVGGNSCSAQTVCCTNTYQHGLVNVGCTPINIGL
notes: Expressed as H6-GB1-SC16 with a thrombin site; also called hydrophobin SC16; not shown: His6, N-terminal, cleaved; B1 domain of protein G (GB1), N-terminal, cleaved
For B1, the binding result is recorded as “binds”.

B2: SC16 with 13 residues from the N-terminal tail removed (residues 31Lys-114Leu of SC16) (domain or fragment, Schizophyllum commune, UniProt D8QCG9 31-114, looked up)
chain: KSCSSGPVYCCNKTEDHLDKGTTALLGLLNIKIGDLKDLVGLNCSPLSVIGVGGNSCSAQTVCCTNTYQHGLVNVGCTPINIGL
notes: class IB hydrophobin SC16, product of the hyd1 gene of Schizophyllum commune, NCBI ID EFI94929, residues 31Lys-114Leu; Expressed as H6-GB1-SC16ΔN with a thrombin site; also called SC16ΔN; not shown: His6, N-terminal, cleaved; B1 domain of protein G (GB1), N-terminal, cleaved
As for B2, the binding result is reported as “binds”.
